Bridge positions count the residues as written; N and C are the ends. Square brackets hold non-standard residues; d marks the D form. Ends that are not written are not given here. dPhe(4-F) = N[C@H](Cc1ccc(F)cc1)C(=O)O; dTle = CC(C)(C)[C@@H](N)C(=O)O; Pen = CC(C)(S)[C@H](N)C(=O)O; hCys = N[C@@H](CCS)C(=O)O
Legend:
Assay in all cases: cell-based or functional assay
[1] = molecular target: melanocortin-1 receptor (human, UniProt Q01726 1-317)
[2] = molecular target: melanocortin-3 receptor (human, UniProt P41968 1-323)
Chain of melanocortin-3 receptor (P41968 whole entry): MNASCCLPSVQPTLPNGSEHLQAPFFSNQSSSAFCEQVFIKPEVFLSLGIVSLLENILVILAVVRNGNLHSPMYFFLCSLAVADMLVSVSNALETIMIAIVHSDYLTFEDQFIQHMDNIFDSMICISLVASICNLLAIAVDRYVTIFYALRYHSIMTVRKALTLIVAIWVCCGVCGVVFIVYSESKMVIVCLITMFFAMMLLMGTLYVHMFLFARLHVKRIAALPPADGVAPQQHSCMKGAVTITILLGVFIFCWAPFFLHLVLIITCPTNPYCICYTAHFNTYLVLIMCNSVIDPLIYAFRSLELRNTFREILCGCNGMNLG

[3] = molecular target: melanocortin-4 receptor (human, UniProt P32245 1-332)
Chain of melanocortin-4 receptor (P32245 whole entry): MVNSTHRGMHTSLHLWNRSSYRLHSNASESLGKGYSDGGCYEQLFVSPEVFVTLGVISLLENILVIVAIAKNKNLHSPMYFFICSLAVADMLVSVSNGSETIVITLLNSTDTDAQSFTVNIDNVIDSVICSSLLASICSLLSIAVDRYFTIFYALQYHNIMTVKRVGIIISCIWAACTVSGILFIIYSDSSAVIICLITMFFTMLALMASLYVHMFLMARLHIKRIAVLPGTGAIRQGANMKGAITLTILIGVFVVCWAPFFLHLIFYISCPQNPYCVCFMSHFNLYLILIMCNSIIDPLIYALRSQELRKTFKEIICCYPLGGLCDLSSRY

[4] = molecular target: melanocortin-5 receptor (human, UniProt P33032 1-325)
Chain of melanocortin-5 receptor (P33032 whole entry): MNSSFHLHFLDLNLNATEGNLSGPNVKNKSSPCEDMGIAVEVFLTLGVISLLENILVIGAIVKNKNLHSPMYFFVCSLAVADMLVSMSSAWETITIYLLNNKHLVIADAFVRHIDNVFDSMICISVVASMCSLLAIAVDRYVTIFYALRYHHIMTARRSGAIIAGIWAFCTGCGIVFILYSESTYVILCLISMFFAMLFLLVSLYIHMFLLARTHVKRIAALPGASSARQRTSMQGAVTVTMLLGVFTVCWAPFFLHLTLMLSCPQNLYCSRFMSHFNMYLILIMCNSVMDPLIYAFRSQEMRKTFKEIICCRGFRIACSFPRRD

Chain of melanocortin-1 receptor (Q01726 whole entry): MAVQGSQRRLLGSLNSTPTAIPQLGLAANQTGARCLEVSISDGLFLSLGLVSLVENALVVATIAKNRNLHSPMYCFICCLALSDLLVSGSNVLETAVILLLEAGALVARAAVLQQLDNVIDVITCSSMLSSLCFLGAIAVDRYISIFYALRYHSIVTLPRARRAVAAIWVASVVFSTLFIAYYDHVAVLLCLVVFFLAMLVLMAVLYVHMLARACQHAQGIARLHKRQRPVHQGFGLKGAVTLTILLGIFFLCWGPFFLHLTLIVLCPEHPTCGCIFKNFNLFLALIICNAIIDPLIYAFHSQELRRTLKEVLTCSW

Row | Binder | Ratios of EC50 values: MC1/4 [1] | cAMP Assay (EC-50) [1] [nM] | Ratios of EC50 values: MC3/4 [2] | cAMP Assay (EC-50) [2] [nM] | cAMP Assay (EC-50) [3] [nM] | Ratios of EC50 values: MC5/4 [4] | cAMP Assay (EC-50) [4] [nM]
1 | Ac-R[hCys]A[dF]RWC-NH2 (disulfide 2-7; SMILES CC(=O)N[C@@H](CCCNC(=N)N)C(=O)N[C@H]1CCSSC[C@@H](C(N)=O)NC(=O)[C@H](Cc2c[nH]c3ccccc23)NC(=O)[C@H](CCCNC(=N)N)NC(=O)[C@@H](Cc2ccccc2)NC(=O)[C@H](C)NC1=O) [Compound 15: Ac-Arg-cyclo[hCys-Ala-D-Phe-Arg-Trp-Cys]-NH2] | 15 | 4 | 3.8 | 1 | 0.26 | 161 | 42
2 | Ac-RC[dTle]H[dF]RWC-NH2 (disulfide 2-8) [Compound 3: Ac-Arg-cyclo[Cys-D-Tle-His-D-Phe-Arg-Trp-Cys]-NH2] |  | 1 |  | 0.7 |  |  | 672
3 | Ac-RC[dA]W[dF]RWC-NH2 (disulfide 2-8; SMILES CC(=O)N[C@@H](CCCNC(=N)N)C(=O)N[C@H]1CSSC[C@@H](C(N)=O)NC(=O)[C@H](Cc2c[nH]c3ccccc23)NC(=O)[C@H](CCCNC(=N)N)NC(=O)[C@@H](Cc2ccccc2)NC(=O)[C@H](Cc2c[nH]c3ccccc23)NC(=O)[C@@H](C)NC1=O) [Compound 7: Ac-Arg-cyclo[Cys-D-Ala-Trp-D-Phe-Arg-Trp-Cys]-NH2] | 8 | 273 | > 290 | > 10000 | 34 | 7 | 259
4 | Ac-RC[dV]H[dF]RWC-NH2 (disulfide 2-8) [Compound 4: Ac-Arg-cyclo[Cys-D-Val-His-D-Phe-Arg-Trp-Cys]-NH2] | 0.93 | 1.25 | 1.19 | 1.59 | 1.34 | 584 | 782
5 | Ac-RC[dA]R[dF]RWC-NH2 (disulfide 2-8; SMILES CC(=O)N[C@@H](CCCNC(=N)N)C(=O)N[C@H]1CSSC[C@@H](C(N)=O)NC(=O)[C@H](Cc2c[nH]c3ccccc23)NC(=O)[C@H](CCCNC(=N)N)NC(=O)[C@@H](Cc2ccccc2)NC(=O)[C@H](CCCNC(=N)N)NC(=O)[C@@H](C)NC1=O) [Compound 10: Ac-Arg-cyclo[Cys-D-Ala-Arg-D-Phe-Arg-Trp-Cys]-NH2] | 2.31 | 6.2 | 1.45 | 3.9 | 2.7 |  | 
6 | Ac-RC[dA]P[dF]RWC-NH2 (disulfide 2-8; SMILES CC(=O)N[C@@H](CCCNC(=N)N)C(=O)N[C@H]1CSSC[C@@H](C(N)=O)NC(=O)[C@H](Cc2c[nH]c3ccccc23)NC(=O)[C@H](CCCNC(=N)N)NC(=O)[C@@H](Cc2ccccc2)NC(=O)[C@@H]2CCCN2C(=O)[C@@H](C)NC1=O) [Compound 13: Ac-Arg-cyclo[Cys-D-Ala-Pro-D-Phe-Arg-Trp-Cys]-NH2] | 5 | 280 | > 200 | > 10000 | 56 | 13 | 707
7 | Ac-RC[dA]N[dF]RWC-NH2 (disulfide 2-8; SMILES CC(=O)N[C@@H](CCCNC(=N)N)C(=O)N[C@H]1CSSC[C@@H](C(N)=O)NC(=O)[C@H](Cc2c[nH]c3ccccc23)NC(=O)[C@H](CCCNC(=N)N)NC(=O)[C@@H](Cc2ccccc2)NC(=O)[C@H](CC(N)=O)NC(=O)[C@@H](C)NC1=O) [Compound 9: Ac-Arg-cyclo[Cys-D-Ala-Asn-D-Phe-Arg-Trp-Cys]-NH2] | 90 | 248 | 30 | 81 | 3 | 530 | 1490
8 | RCAHFRWC (cysteine pairing not given here; also: further groups not given here) [Peptide 1] |  |  |  |  |  |  | 1600
9 | Ac-RC[dA][His(1-Me)][dF]RWC-NH2 (disulfide 2-8) [Compound 6: Ac-Arg-cyclo[Cys-D-Ala-His(1-Me)-D-Phe-Arg-Trp-Cys]-NH2] |  | 30.4 |  | 4.3 |  |  | 467
10 | Ac-R[hCys][dA][dF]RW[Pen]-NH2 (disulfide 2-7; SMILES CC(=O)N[C@@H](CCCNC(=N)N)C(=O)N[C@H]1CCSSC(C)(C)[C@@H](C(N)=O)NC(=O)[C@H](Cc2c[nH]c3ccccc23)NC(=O)[C@H](CCCNC(=N)N)NC(=O)[C@@H](Cc2ccccc2)NC(=O)[C@@H](C)NC1=O) [Compound 17: Ac-Arg-cyclo[hCys-D-Ala-D-Phe-Arg-Trp-Pen]-NH2] | 15 | 195 | 17 | 233 | 13.7 | 159 | 2180
11 | Ac-RC[dI]H[dF]RWC-NH2 (disulfide 2-8) [Compound 2: Ac-Arg-cyclo[Cys-D-Ile-His-D-Phe-Arg-Trp-Cys]-NH2] | 0.69 | 0.69 | 0.96 | 0.96 | 1 | 420 | 420
12 | Ac-RC[dL]H[dF]RWC-NH2 (disulfide 2-8) [Compound 1: Ac-Arg-cyclo[Cys-D-Leu-His-D-Phe-Arg-Trp-Cys]-NH2] | 0.68 | 0.47 | 1.13 | 0.79 | 0.7 | 130 | 91
13 | Ac-RC[dA][His(3-Me)][dF]RWC-NH2 (disulfide 2-8) [Compound 5: Ac-Arg-cyclo[Cys-D-Ala-His(3-Me)-D-Phe-Arg-Trp-Cys]-NH2] |  | 4.1 |  | 406 | 1.15 |  | 1080
14 | Ac-RC[dA]Y[dF]RWC-NH2 (disulfide 2-8; SMILES CC(=O)N[C@@H](CCCNC(=N)N)C(=O)N[C@H]1CSSC[C@@H](C(N)=O)NC(=O)[C@H](Cc2c[nH]c3ccccc23)NC(=O)[C@H](CCCNC(=N)N)NC(=O)[C@@H](Cc2ccccc2)NC(=O)[C@H](Cc2ccc(O)cc2)NC(=O)[C@@H](C)NC1=O) [Compound 11: Ac-Arg-cyclo[Cys-D-Ala-Tyr-D-Phe-Arg-Trp-Cys]-NH2] | 6.67 | 301 | > 22.2 | > 1000 | 45.1 |  | 
15 | Ac-R[hCys][dA][dF]RWC-NH2 (disulfide 2-7; SMILES CC(=O)N[C@@H](CCCNC(=N)N)C(=O)N[C@H]1CCSSC[C@@H](C(N)=O)NC(=O)[C@H](Cc2c[nH]c3ccccc23)NC(=O)[C@H](CCCNC(=N)N)NC(=O)[C@@H](Cc2ccccc2)NC(=O)[C@@H](C)NC1=O) [Compound 16: Ac-Arg-cyclo[hCys-D-Ala-D-Phe-Arg-Trp-Cys]-NH2] | 120 | 888 | 420 | 3160 | 7.5 | > 1340 | > 10000
16 | Ac-RC[dA]P[dPhe(4-F)]RWC-NH2 (disulfide 2-8; SMILES CC(=O)N[C@@H](CCCNC(=N)N)C(=O)N[C@H]1CSSC[C@@H](C(N)=O)NC(=O)[C@H](Cc2c[nH]c3ccccc23)NC(=O)[C@H](CCCNC(=N)N)NC(=O)[C@@H](Cc2ccc(F)cc2)NC(=O)[C@@H]2CCCN2C(=O)[C@@H](C)NC1=O) [Compound 14: Ac-Arg-cyclo[Cys-D-Ala-Pro-D-Phe(p-F)-Arg-Trp-Cys]-NH2] | 7 | 169 | > 400 | > 10000 | 24 | 12 | 283
17 | Ac-ECAH[dF]RWC-NH2 (disulfide 2-8; SMILES CC(=O)N[C@@H](CCC(=O)O)C(=O)N[C@H]1CSSC[C@@H](C(N)=O)NC(=O)[C@H](Cc2c[nH]c3ccccc23)NC(=O)[C@H](CCCNC(=N)N)NC(=O)[C@@H](Cc2ccccc2)NC(=O)[C@H](Cc2c[nH]cn2)NC(=O)[C@H](C)NC1=O) [Compound 22: Ac-Glu-cyclo[Cys-Ala-His-D-Phe-Arg-Trp-Cys]-NH2] | > 3 | 1.7 | > 20 | 9.9 | < 0.5 | > 2560 | 1280
18 | Ac-RC[dA]Q[dF]RWC-NH2 (disulfide 2-8; SMILES CC(=O)N[C@@H](CCCNC(=N)N)C(=O)N[C@H]1CSSC[C@@H](C(N)=O)NC(=O)[C@H](Cc2c[nH]c3ccccc23)NC(=O)[C@H](CCCNC(=N)N)NC(=O)[C@@H](Cc2ccccc2)NC(=O)[C@H](CCC(N)=O)NC(=O)[C@@H](C)NC1=O) [Compound 8: Ac-Arg-cyclo[Cys-D-Ala-Gln-D-Phe-Arg-Trp-Cys]-NH2] | 40 | 71 | 5 | 8.6 | 1.6 | 155 | 255

— patent US20160022764A1 (RHYTHM PHARMACEUTICALS, published 2016)
